{"source": "patent US20100003264A1", "about": "“Reduction of Ophthalmalogic Neovascularization” (WASHINGTON UNIVERSITY, priority 2005, published 2010)", "system": "choroidal neovascularization", "assay": "laser-induced choroidal neovascularization in mice, volume of the neovascular complex", "assay_type": "in vivo", "details": "IL-10 knockout mice, IL-10 intravitreally on day of laser or three days after laser", "method": "Volume of the neovascular complex was examined in IL-10 knockout mice. Knockout mice were purchased commercially (NCI, Frederick, Md.). All work was carried out per the ARVO guidelines for animal use in research. Rupture of Bruch's membrane with laser was used to initiate chorioretinal neovascularization in 5-7 week old mice as described in Nambu et al. ((2003) Invest Ophthalmol Vis Sci 44: 3650). Seven days after laser, the mice were anesthetized and perfused intraventricularly with fluorescein-labeled dextran. The mice were euthanized with CO2 inhalation and the eyes harvested for tissue processing. A dissecting microscope was used to remove the cornea and lens and gently separate the retina from the underlying choroid and sclera. Microscissors were used to make four radial incisions in the sclerochoroidal ‘eyecup’ in order to prepare choroidal flat mounts on glass slides. The tissues were incubated in 4% paraformaldehyde for 45 minutes and washed three times with 3% bovine serum albumin. […] The choroidal flat mounts were analyzed for presence of CNV by confocal microscopy. Extent of choroidal neovascularization was quantified by Metamorph™ imaging software. […]\nMacrophages were used to proactively treat the formation of blood vessels in the eye. […] Choroidal neovascularization was analyzed on day 7. […]", "note": "Entries after “also recorded” stand apart in the source; their conditions may differ."}
{"molecule": "IL-10: cytokine produced by activated macrophages and some helper T cells; injected exogenously into eyes of IL-10 knockout mice (protein, UniProt P18893 19-178, looked up) Interleukin-10: SRGQYSREDNNCTHFPVGQSHMLLELRTAFSQVKTFFQTKDQLDNILLTDSLMQDFKGYLGCQALSEMIQFYLVEVMPQAEKHGPEIKEHLNSLGEKLKTLRMRLRRCHRFLPCENKSKAVEQVKSDFNKLQDQGVYKAMNEFDIFINCIEAYMMIKMKS", "values": [{"measurement": "choroidal neovascularization (volume of the neovascular complex)", "value": "reversed the inhibition choroidal neovascularization; also recorded: increased new vessel formation"}, {"measurement": "choroidal neovascularization (volume of the neovascular complex)", "setting": "listed as Exogenous IL-10", "value": "reversed the inhibition choroidal neovascularization"}]}
